The source of these data is article doi:10.1101/2020.09.09.287508 (bioRxiv, 2020).

The test has as its target SARS-CoV-2 S-ECD-hFc (extracellular domain of the spike (S) protein, hFc-tagged) (SARS-CoV-2, UniProt P0DTC2 14-1213). In words: flow cytometry on cells.

B1: ASGR1 (receptor)
chain: MTKEYQDLQHLDNEESDHHQLRKGPPPPQPLLQRLCSGPRLLLLSLGLSLLLLVVVCVIGSQNSQLQEELRGLRETFSNFTASTEAQVKGLSTQGGNVGRKMKSLESQLEKQQKDLSEDHSSLLLHVKQFVSDLRSLSCQMAALQGNGSERTCCPVNWVEHERSCYWFSRSGKAWADADNYCRLEDAHLVVVTSWEEQKFVQHHIGPVNTWMGLHDQNGPWKWVDGTDYETGFKNWRPEQPDDWYGHGLGGGEDCAHFTDDGRWNDDVCQRPYRWVCETELDKASQEPPLL
One may read the Kd as the constant that tells how readily two partners part at equilibrium. A low value points to higher affinity. Turning to B1, the Kd stood at 94.8 nM.

B2: KREMEN1 (receptor)
chain: ARPAPSPGLGPECFTANGADYRGTQNWTALQGGKPCLFWNETFQHPYNTLKYPNGEGGLGEHNYCRNPDGDVSPWCYVAEHEDGVYWKYCEIPACQMPGNLGCYKDHGNPPPLTGTSKTSNKLTIQTCISFCRSQRFKFAGMESGYACFCGNNPDYWKYGEAASTECNSVCFGDHTQPCGGDGRIILFDTLVGACGGNYSAMSSVVYSPDFPDTYATGRVCYWTIRVPGASHIHFSFPLFDIRDSADMVELLDGYTHRVLARFHGRSRPPLSFNVSLDFVILYFFSDRINQAQGFAVLYQAVKEELPQERPAVNQTVAEVITEQANLSVSAARSSKVLYVITTSPSHPPQTVPGSNSWAPPMGAGSHRVEGWTVYGLATLLILTVTAIVAKILLHVTFKSHRVPASGDLRDCHQPGTSGEIWSIFYKPSTSISIFKKKLKGQSQQDDRNPLVSD
B2 displayed a Kd of 19.3 nM.
